For one substance, Kd results are on record in article PMC12079263.

The experiment has as its target Rab11 (1–173, Q70L) with 6 × His, bound to GTP-γ-S (UniProt P62491). The experiment is described as follows: SPR.

What is called Kd is the free concentration of one partner at which half of the binding sites on the other are occupied at equilibrium, for simple one-to-one binding. Higher therefore signals weaker binding. Substance “p14^1–69 protein (p14 FAST protein of reptilian reovirus, residues 1-69) reconstituted into bicelles (domain or fragment)” showed a Kd of 2.13 µM.
